Here are results for 3 molecules from US20110190477A1 (G2 INFLAMMATION, published 2011).

No end group written: not given here. *: point of attachment. Biotin = O=C1N[C@H]2[C@H](CS[C@H]2CCCCC(=O)*)N1

One may read the EC50 as the concentration needed to bring the measured effect to its halfway point. Low readings indicate higher potency in that assay, high ones lower potency in that assay.

The target in assay [1] is T1, human C5a receptor (human, UniProt P21730 1-350).
T1 chain: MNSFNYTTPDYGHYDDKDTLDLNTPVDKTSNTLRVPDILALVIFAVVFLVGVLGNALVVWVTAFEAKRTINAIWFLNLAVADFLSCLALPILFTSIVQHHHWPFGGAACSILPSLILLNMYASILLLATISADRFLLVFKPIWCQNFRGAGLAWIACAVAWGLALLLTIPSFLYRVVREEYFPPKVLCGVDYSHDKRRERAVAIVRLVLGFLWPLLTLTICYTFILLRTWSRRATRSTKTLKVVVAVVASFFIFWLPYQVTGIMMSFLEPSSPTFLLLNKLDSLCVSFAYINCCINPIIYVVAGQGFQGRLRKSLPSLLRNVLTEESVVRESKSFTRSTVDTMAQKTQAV
Kind of assay: cell-based or functional assay.

In assay [2] the target is T1, human C5a receptor. The assay can be described thus: 125I-C5a displacement, human neutrophils. The procedure: (§1) The ability of humanized Abs to inhibit ¹²⁵I-labelled C5a binding to L1.2 cells transfected with hC5aR gene or human neutrophils was tested as described below. Recombinant human C5a was obtained from Sigma Chemical Co. (St. Louis, Mo.). ¹²⁵I-Bolton-Hunter-labelled complement C5a was purchased from NEN-Dupont (Boston, Mass.), with a specific activity of 2200 Ci/mM. Briefly, L1.2/hC5aR stable transfectants were grown for several days prior to an experiment then treated overnight with 5 mM butyric acid to stimulate hC5aR expression prior to the binding assay. Human neutrophils were purified from venous blood collected from healthy volunteers. Neutrophils were separated from other leukocytes by percoll density centrifugation followed by a red blood cell lysis step. Both cell types were washed once in PBS and resuspended in binding buffer (50 mM Hepes, pH 7.5, 1 mM CaCl₂, 5 mM MgCl₂, 0.5% BSA) at a concentration of 1×10⁷/ml. Aliquots of 40 μl (4×10⁵ cells) were dispensed into 96 well microtitre plates, followed by the addition of cold competitor (antibody or human C5a). Cells and cold competitor were incubated for 15 min at room temperature before-radiolabelled C5a was added to a final concentration of 0.4 nM. The final reaction volume was 120 μl. After 60 min incubation at room temperature, the cells were washed three times with 150 μl of binding buffer containing 0.15 M NaCl. Cell pellets were then counted on a TopCount Scintillation Counter (Packard). Samples were assayed in triplicate at each of 6-8 concentrations. Each antibody was tested in at least 3 separate assays. The number of counts in each sample was expressed as a percentage of the maximum ¹²⁵I-C5a binding observed in wells with no added cold competitor after subtraction of background.
(§2) Results of this analysis (the displacement curves) for each of the humanized antibodies compared to the mouse antibody 7F3 in human neutrophils and L1.2/hC5aR transfectants are given in FIGS. 11 and 12 respectively. […] These values were obtained using Graphpad Prism software fitting the data to the non-linear equation for one site competition.

Assay [3] addresses T2, peptide 1 (12 mer from the 2nd extracellular loop of human C5aR) (human, not fully specified).
T2 construct: worked out from 22 12 mers offset by one over 173-205; also called peptide no
T2 peptide: Biotin-SGSGLYRVVREEYFPP
Kind of assay: peptide ELISA, biotin peptide on streptavidin plate. An excerpt: (§3) A set of 22 overlapping peptides (12 mers), each offset by 1 residue from the next, spanning the second extracellular loop (3rd extracellular domain) of human C5aR was synthesised (Mimotopes, Melbourne). Each peptide was made with a biotin group and 4-amino acid linker (SGSG) at its N-terminus. One peptide synthesised, no. 23, was a 33 mer, representing the full length of the 2nd extracellular loop of hC5aR (residues 173-205 from SEQ ID NO:37), also had biotin-SGSG at the N-terminus.
(§4) The experiment was conducted by binding the peptides to a 384-well streptavidin-coated plate then incubating the antibodies with the peptides and detecting bound antibody with an anti-mouse IgG conjugated to horse radish peroxidase (HRP) as follows. Each peptide was dissolved in 200 μl of 60% DMSO to a concentration of 10 mg/ml. Peptides were further diluted 1:1000 to a working strength of 10 μg/ml with PBS/Tween 20/azide solution (0.1% w/v sodium azide in PBS/0.05% Tween 20).
(§5) A 384 well streptavidin-coated plate (Nunc) was blocked with 20 μl of blocking buffer (1% w/v BSA in PBS) per well. The plate was washed 4 times with PBS/Tween20 buffer (0.1% v/v Tween 20 in PBS). 20 μl of diluted peptide solution was transferred into a well and the plate incubated for 1 hour at room temperature. After washing the plate 4 times (as above) 20 μl antibody (0.5, 1, 1.25, 2.5 or 5 μg/ml) was added to the well and the plate was incubated for 1 hour at 20° C. The plate was washed 4 times as above then 20 μlHRP-conjugated anti-mouse IgG (1:5000 dilution in PBS/Tween 20) was added to each well. After a 1 hour incubation at room temperature the plate was washed 3 times (as above) then twice with PBS to remove traces of Tween. The presence of peroxidase was detected by adding 20 μl of freshly prepared TMB Substrate reagent (BD Opt EIA) to each well and incubating at room temperature for 20 min. Finally the plate was read at 650 nm/450 nm.
In general terms: In an ELISA, binding on a coated surface is turned into a signal by an enzyme label.

In assay [4] the target is T3, peptide 2 (12 mer from the 2nd extracellular loop of human C5aR) (human).
T3 construct: worked out from 22 12 mers offset by one over 173-205; also called peptide no
T3 peptide: Biotin-SGSGYRVVREEYFPPK
The assay is described as above.
From the text: as §3, §4, §5

Assay [5] deals with T4, peptide 3 (12 mer from the 2nd extracellular loop of human C5aR) (human).
T4 construct: worked out from 22 12 mers offset by one over 173-205; also called peptide no
T4 peptide: Biotin-SGSGRVVREEYFPPKV
The assay is described as above.
From the text: as §3, §4, §5

Assay [6] concerns the target T5, peptide 4 (12 mer from the 2nd extracellular loop of human C5aR) (human).
T5 construct: worked out from 22 12 mers offset by one over 173-205; also called peptide no
T5 peptide: Biotin-SGSGVVREEYFPPKVL
The description is as above.
From the text: as §3, §4, §5

For assay [7], the target named is T6, peptide 5 (12 mer from the 2nd extracellular loop of human C5aR) (human).
T6 construct: worked out from 22 12 mers offset by one over 173-205; also called peptide no
T6 peptide: Biotin-SGSGVREEYFPPKVLC
The description is as above.
From the text: as §3, §4, §5

In assay [8] the target is T7, peptide 6 (12 mer from the 2nd extracellular loop of human C5aR) (human).
T7 construct: worked out from 22 12 mers offset by one over 173-205; also called peptide no
T7 peptide: Biotin-SGSGREEYFPPKVLCG
The assay is described as above.
From the text: as §3, §4, §5

The target in assay [9] is T8, peptide 7 (12 mer from the 2nd extracellular loop of human C5aR) (human).
T8 construct: worked out from 22 12 mers offset by one over 173-205; also called peptide no
T8 peptide: Biotin-SGSGEEYFPPKVLCGV
Described as above.
From the text: as §3, §4, §5

The target of assay [10] is T1, human C5a receptor. Kind of assay: 125I-C5a displacement, L1.2/hC5aR transfectants. The procedure:
as §1, §2

B1: mouse anti-C5aR monoclonal antibody 7F3 (antibody, V domains shown)
VH: QVQLQQSGPELVKPGASVKISCKASGYAFSNSWMNWVKQRPGKGLEWIGRIYPGDGDTKYNGKFKGKATLTADKSSSTAYMQLSSLTSEDSAVYFCARFLLISTVTAVDYWGQGTTLTVSS
VL: DVVMTQSPLSLPVSLGNQASISCRSSQSLVHSNGNTYLHWYLQKPGQSPKLLIYKVSNRFSGVPDRFSGSGSGTDFSLKISRVEAEDLGVYFCSQSTLVPLTFGAGTKLELK
notes: Mouse monoclonal from hybridoma ECACC 00110609; also called m7F3; mouse 7F3
With B1, in the assay with human C5a receptor [1], the “IC50, C5a-induced migration of hC5aR/L1.2 cells” value (“IC50, C5a-induced migration” below) was determined as 0.5 µg/mL. Moreover, the “antibody concentration that completely blocked migration of human neutrophils induced by 10 nM C5a” value with human C5a receptor [1] is 10 µg/mL. The “antibody concentration that completely inhibited hC5aR/L1.2 transfectant migration” value with human C5a receptor [1] stood at 5 µg/mL. Besides, the “blocking of human neutrophil migration towards C5a at 5 µg/ml antibody” value with human C5a receptor [1] amounted to 97%. Moreover, the EC50 with human C5a receptor [2] came to 540 pM; in the assay with human C5a receptor [10], 510 pM. Moreover, the binding result in [3], in assay [4], in assay [5], in assay [6], in assay [7] and in assay [8] was “binds” throughout. For the same molecule, the binding result in assay [9] was “binds”.

B2: humanized anti-C5aR antibody hAb-J (antibody, human IgG4 S228P, kappa)
light: DVVMTQSPLSLPVTLGEPASISCRSSQSLVHSNGNTYLHWYLQKPGQSPQLLIYKVSNRFSGVPDRFSGSGSGTDFTLKISRVEAEDVGVYFCSQSTLVPLTFGQGTKLEIKTVAAPSVFIFPPSDEQLKSGTASVVCLLNNFYPREAKVQWKVDNALQSGNSQESVTEQDSKDSTYSLSSTLTLSKADYEKHKVYACEVTHQGLSSPVTKSFNRGEC
heavy: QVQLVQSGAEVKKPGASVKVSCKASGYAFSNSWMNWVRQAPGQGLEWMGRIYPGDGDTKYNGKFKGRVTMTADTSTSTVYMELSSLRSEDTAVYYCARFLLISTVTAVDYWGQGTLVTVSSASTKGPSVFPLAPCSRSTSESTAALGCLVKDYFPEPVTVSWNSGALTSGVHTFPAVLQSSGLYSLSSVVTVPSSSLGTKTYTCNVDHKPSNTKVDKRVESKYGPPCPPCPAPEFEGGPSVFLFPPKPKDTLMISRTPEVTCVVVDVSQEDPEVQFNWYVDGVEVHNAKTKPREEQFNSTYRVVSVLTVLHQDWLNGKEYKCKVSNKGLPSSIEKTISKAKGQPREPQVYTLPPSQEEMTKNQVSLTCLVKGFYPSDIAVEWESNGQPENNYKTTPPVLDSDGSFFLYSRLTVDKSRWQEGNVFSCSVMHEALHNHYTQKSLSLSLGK
notes: also called antibody J
Regarding B2, in the assay with human C5a receptor [1], the “IC50, C5a-induced migration” value came out at 0.6 µg/mL; the “antibody concentration that completely inhibited hC5aR/L1.2 transfectant migration” value was determined as 5 µg/mL; the “blocking of human neutrophil migration towards C5a at 5 µg/ml antibody” value was 82%. In the assay with human C5a receptor [2], this molecule had a 50% effective concentration (EC50) of 4110 pM. In the assay with human C5a receptor [10], this molecule showed an EC50 of 930 pM.

B3: humanized anti-C5aR antibody hAb-Q (antibody, human IgG4 S228P, kappa)
light: DVVMTQSPLSLPVTLGEPASISCRSSQSLVHSNGNTYLHWYLQKPGQSPQLLIYKVSNRFSGVPDRFSGSGSGTDFTLKISRVEAEDVGVYFCSQSTLVPLTFGQGTKLEIKRTVAAPSVFIFPPSDEQLKSGTASVVCLLNNFYPREAKVQWKVDNALQSGNSQESVTEQDSKDSTYSLSSTLTLSKADYEKHKVYACEVTHQGLSSPVTKSFNRGEC
heavy: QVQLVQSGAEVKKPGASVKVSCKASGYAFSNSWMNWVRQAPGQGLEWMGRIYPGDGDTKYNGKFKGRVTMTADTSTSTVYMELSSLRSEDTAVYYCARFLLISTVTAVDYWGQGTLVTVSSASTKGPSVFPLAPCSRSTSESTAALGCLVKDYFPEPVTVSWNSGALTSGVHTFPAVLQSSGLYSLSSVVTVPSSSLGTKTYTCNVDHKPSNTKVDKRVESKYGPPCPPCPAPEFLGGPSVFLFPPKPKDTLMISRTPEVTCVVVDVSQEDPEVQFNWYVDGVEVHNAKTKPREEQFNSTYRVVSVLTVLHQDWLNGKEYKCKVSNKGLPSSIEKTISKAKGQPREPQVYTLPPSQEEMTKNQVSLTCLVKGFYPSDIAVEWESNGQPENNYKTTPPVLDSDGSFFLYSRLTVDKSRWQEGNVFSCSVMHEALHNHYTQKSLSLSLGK
notes: IgG4 with the Ser228Pro mutation; also called antibody Q; anti-C5aR ab
As to B3, in the assay with human C5a receptor [1], the “EC50 for inhibition of C5a-induced human neutrophil migration” value was 0.03 µg/mL. In addition, the “IC50, C5a-induced migration” value with human C5a receptor [1] worked out at 0.7 µg/mL. The “IC50, prevention of C5a-induced CD11b up-regulation on neutrophils in whole human blood (100 nM C5a)” value with human C5a receptor [1] was roughly 10.7 µg/mL. Moreover, the “IC50, prevention of C5a-induced loss of CD62L on neutrophils in whole human blood (100 nM C5a)” value with human C5a receptor [1] is roughly 5.4 µg/mL. The “antibody concentration that completely inhibited hC5aR/L1.2 transfectant migration” value with human C5a receptor [1] came to 5 µg/mL. Also, the results for the EC50 with human C5a receptor [2] and with human C5a receptor [10] were 3500 pM and 860 pM, respectively. The binding result in assay [3], in assay [4], in assay [5], in assay [6], in assay [7] and in assay [8] was “binds” each time. Besides, the binding result in assay [9] is recorded as “binds”.
